Source: paper PMC11339409

Columns and labels:
[1] = molecular target: LUJV glycoprotein-1 (GP1) (Lujo virus (LUJV)); experiment: cryo-EM structure
[2] = molecular target: LUJV glycoprotein-2 (GP2) (Lujo virus (LUJV)); experiment: cryo-EM structure

Substance “LUJV glycoprotein-1 (GP1) (domain or fragment)” has a stoichiometry N [1] of 3.
“LUJV glycoprotein-2 (GP2) (domain or fragment)” was tested, and the stoichiometry N [2] was 3.
